# US20210130491A1 (ONCOTAG DIAGNOSTICS, published 2021)
# T1: MRS fragment 1 (1~266 aa)
# T1 construct: Expressed in H460 cells from pcDNA3; also called lane 1
# T1 single chain: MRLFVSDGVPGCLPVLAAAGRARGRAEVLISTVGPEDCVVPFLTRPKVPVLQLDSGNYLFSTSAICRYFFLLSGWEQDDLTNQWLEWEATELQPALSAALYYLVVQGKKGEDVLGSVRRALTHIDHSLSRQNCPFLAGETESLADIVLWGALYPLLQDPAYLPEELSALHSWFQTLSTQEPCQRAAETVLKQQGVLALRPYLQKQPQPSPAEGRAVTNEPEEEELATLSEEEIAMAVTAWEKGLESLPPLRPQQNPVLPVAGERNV
# T2: MRS fragment 3 (267~597 aa)
# T2 construct: Expressed in H460 cells from pcDNA3; also called lane 3
# T2 single chain: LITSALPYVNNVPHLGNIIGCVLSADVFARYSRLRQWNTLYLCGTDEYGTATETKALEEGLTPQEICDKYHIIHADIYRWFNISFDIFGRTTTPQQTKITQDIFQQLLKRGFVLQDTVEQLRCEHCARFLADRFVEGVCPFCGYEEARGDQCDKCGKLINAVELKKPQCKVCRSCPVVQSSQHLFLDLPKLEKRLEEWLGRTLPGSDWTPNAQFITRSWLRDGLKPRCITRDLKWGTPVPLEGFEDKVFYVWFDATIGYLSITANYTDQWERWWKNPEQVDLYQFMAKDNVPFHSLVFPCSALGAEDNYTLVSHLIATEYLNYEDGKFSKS
# T3: MRS fragment 2 (267~417 aa)
# T3 construct: Expressed in H460 cells from pcDNA3; also called lane 2
# T3 single chain: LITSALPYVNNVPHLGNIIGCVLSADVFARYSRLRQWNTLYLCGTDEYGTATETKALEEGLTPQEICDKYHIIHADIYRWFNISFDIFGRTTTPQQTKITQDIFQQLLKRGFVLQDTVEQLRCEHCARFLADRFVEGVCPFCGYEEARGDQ
# T4: MRS fragment 4 (1~597 aa)
# T4 construct: Expressed in H460 cells from pcDNA3; also called lane 4
# T4 single chain: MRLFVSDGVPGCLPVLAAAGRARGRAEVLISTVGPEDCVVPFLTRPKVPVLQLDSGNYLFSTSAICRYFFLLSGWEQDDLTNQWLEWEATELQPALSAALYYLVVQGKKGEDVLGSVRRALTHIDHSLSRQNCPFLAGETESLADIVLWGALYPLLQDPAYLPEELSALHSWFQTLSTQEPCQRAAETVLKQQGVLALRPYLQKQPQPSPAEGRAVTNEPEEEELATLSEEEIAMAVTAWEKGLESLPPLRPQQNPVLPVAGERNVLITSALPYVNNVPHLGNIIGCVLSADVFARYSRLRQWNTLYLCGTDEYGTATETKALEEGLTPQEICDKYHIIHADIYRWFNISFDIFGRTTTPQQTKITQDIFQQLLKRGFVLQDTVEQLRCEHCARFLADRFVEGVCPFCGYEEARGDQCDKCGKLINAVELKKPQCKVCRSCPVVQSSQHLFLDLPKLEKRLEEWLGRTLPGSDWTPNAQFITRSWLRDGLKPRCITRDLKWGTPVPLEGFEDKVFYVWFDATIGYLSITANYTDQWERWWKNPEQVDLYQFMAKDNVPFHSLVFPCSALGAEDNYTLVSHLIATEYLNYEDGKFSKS
# T5: MRS fragment 7 (660~860 aa) (human, UniProt P56192 660-860)
# T5 construct: not shown: Myc linked to the N-terminus
# T5 sequence: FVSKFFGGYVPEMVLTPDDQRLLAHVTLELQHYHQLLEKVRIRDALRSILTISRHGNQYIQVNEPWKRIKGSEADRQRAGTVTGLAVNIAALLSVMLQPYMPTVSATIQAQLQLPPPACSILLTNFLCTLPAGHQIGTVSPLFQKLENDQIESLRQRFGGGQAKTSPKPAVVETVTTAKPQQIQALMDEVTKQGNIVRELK
# T6: AIMP3 (aminoacyl tRNA synthetase complex-interacting multifunctional protein 3) (Homo sapiens (Human), UniProt O43324 1-174, limits assumed)
# T6 construct: How the AIMP3-alone protein for SPR and screening was made is not described; also called p18
# T6 sequence: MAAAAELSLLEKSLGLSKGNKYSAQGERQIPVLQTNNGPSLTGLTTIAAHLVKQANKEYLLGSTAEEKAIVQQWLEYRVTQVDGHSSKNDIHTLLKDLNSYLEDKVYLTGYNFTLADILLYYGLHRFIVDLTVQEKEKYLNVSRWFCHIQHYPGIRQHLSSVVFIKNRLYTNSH
# Legend:
# [1] = molecular target: T1, MRS fragment 1 (1~266 aa); test: western blot of lysates of H460 cells transfected with Myc-tagged MRS fragments
# Method: (§1) Six fragments of different lengths and positions were prepared based on the GST, catalytic domain, and tRNA binging domains of the MRS protein, and MRS protein and each of the MRS fragments were cloned into pcDNA3 vector (EV). At this time, since Myc protein is linked to the N-terminus of MRS protein, Myc protein was used as a control.
# (§2) Then, 2 μg of the cloned vector DNA were transfected into H460 cells using Turbofect (Thermo) according to the manufacturer's instructions. After 24 hours, cells were harvested and subjected to western blot. 1E8 antibody and 8A12 antibody were diluted 1:5000 (0.2 μg/mL) as the primary antibody.
# [2] = molecular target: T2, MRS fragment 3 (267~597 aa); test: as above
# Method: as §1, §2
# [3] = molecular target: T3, MRS fragment 2 (267~417 aa); test: as above
# Method: as §1, §2
# [4] = molecular target: T4, MRS fragment 4 (1~597 aa); test: as above
# Method: as §1, §2
# [5] = molecular target: T5, MRS fragment 7 (660~860 aa); test: western blot of lysate of transfected H460 cells
# Method: as §2
# Then, western blot was performed in the same manner as described above.
# [6] = molecular target: T6, AIMP3 (aminoacyl tRNA synthetase …); test: SPR, CM5 chip coated with AIMP3, antibody flowed at 0.20 to 200 nM
# Method: Surface plasmon resonance (SPR) experiments were carried out using 1E8 and 8A12 antibodies and MRS+AIMP3 protein obtained in Example 1.
# CM5 chips were coated with MRS+AIMP3 or AIMP3 proteins and 1E8 or 8A12 antibodies were flowed at various concentrations to measure the degree of binding reaction with the proteins. Samples or buffers were injected for 8 minutes at a flow rate of 30 μl/min and washed for 20 minutes.
binding result [5],binding result [6],Binder,binding result [1],binding result [2],binding result [3],binding result [4]
no binding (tested: 1:5000 (0.2 ug/mL)),no binding (tested: 200 nM),"1E8 antibody (1E8 IgG) (antibody, V domains shown, Mouse monoclonal from hybridoma clone 1E8; also called IE8; anti-MRS antibody (1E8)) VH: DVKLQESGPGLVNPSQSLSLTCTVTGYSITSDYAWNWIRQFPGNKLEWMGYISYSGRTSYKSSLKSRISITRDTSKNQFFLELNSVTTEDTATYYCARDYGNFVGYFDVWGAGTTVTVSS VL: DIVMTQSPSSLAVSVGEKVTMSCKSSQSLLYSSNQKNYLAWYQQKPGQSPKLLIYWASTRESGVPDRFTGSGSGTEFTLTISSVKAEDLAVYYCQQYYSYPTFGGGTKLEIKA","no binding (tested: 0.2 µg/mL (1:5000, from paragraph 148))","no binding (tested: 0.2 µg/mL (1:5000, from paragraph 148))","no binding (tested: 0.2 µg/mL (1:5000, from paragraph 148))","no binding (tested: 0.2 µg/mL (1:5000, from paragraph 148))"
no binding (tested: 1:5000 (0.2 ug/mL)),no binding (tested: 200 nM),"8A12 antibody (8A12 IgG) (antibody, V domains shown, Mouse monoclonal from hybridoma clone 8A12; also called 8Al2; anti-MRS antibody (8A12)) VH: DVKLQESGPGLVKPSQSLSLTCTVTGYSITSEYAWTWIRQFPGNKLEWMGYINYNGNTNLNPSLKSRISIIRDTSKNQFFLQLNSVTTEDTATYYCARSLWPRGWFAYWGQGTLVTVSA VL: DIQMTQSPSSMYASLGERVTITCKASQDINSYLSWFQQKPGKSPKTLMYRANRLVDGVPSRFSGSGSGQDYSLTISSLEYEDMGIYYCLQYDEFPRTFGGGTKLEIKA","no binding (tested: 0.2 µg/mL (1:5000, from paragraph 148))","no binding (tested: 0.2 µg/mL (1:5000, from paragraph 148))","no binding (tested: 0.2 µg/mL (1:5000, from paragraph 148))","no binding (tested: 0.2 µg/mL (1:5000, from paragraph 148))"
